Source: patent publication US7491523B2, “Voltage-dependent calcium channel beta subunit functional core” (priority 2004, dated 2009)
fluorescein = fluorescein label

Legend:
[1] = biological target: T1, Cav1.2 (α1C) (Homo sapiens, UniProt Q13936); test: Two-electrode voltage clamp of Xenopus oocytes expressing Cav1.2, microinjected with β proteins; assay type: cell-based, Xenopus laevis; settings: for current amplitude increase and change of steady-state activation: Cav1.2 currents, protein injection into oocytes; for Current amplitude, I at 20 mV / Current amplitude, I at 30 mV: Xenopus oocytes, α1.2, mean ± SEM; for Steady-state activation, V1/2 (membrane potential for half-maximal activation) / Steady-state activation, k (slope factor): from I-V curve, mean ± SEM
T1 construct: expressed in transfected cells; host or cells: Xenopus laevis oocytes, mRNA injection
Procedure: Preparation of Xenopus laevis oocytes, injection of mRNA of VDCC subunits, and electrophysiological recording and analysis were performed, as described (Kang, M. G., Chen, C. C., Felix, R., Letts, V. A., Frankel, W. N., Mori, Y., and Campbell, K. P. (2001) J Biol Chem 276, 32917-32924). The negative control group were oocytes expressing CaV1.2 (α1C) subunit only by mRNA injection followed by injection of protein buffer (PB). The positive control group were oocytes expressing α1C and β3 subunits by mRNA injection, followed by injection of protein buffer (PB). The oocytes of experimental groups were injected with α1C mRNA followed by injection of VDCC β proteins, two days after the mRNA injection. Injection of protein ([…] of protein per oocyte) was performed similarly as mRNA injection. Oocytes injected with VDCC β proteins were incubated one more day and the expressed calcium channel currents were recorded using the two-electrode voltage-clamp technique.
In order to determine that the bacterially expressed, recombinant proteins were physiologically active, two-electrode, two-voltage-clamp measurements of Xenopus oocytes expressing α1 and microinjected with our protein samples was performed. […] The current amplitude increase and change of steady-state activation are statistically significant in all experimental groups except a group injected with β2a domain I protein.

[2] = biological target: T2, β2a protein (Oryctolagus cuniculus, UniProt P54288, P148R); settings: single amino acid change Y to S; cited from earlier work
T2 construct: Equilibrium isotherm titrations were performed with full-length β2a and linkerless core β2a; 8xHis tag followed by a TEV protease site (N, cleaved yes); made in house; host or cells: E. coli BL-21 Tuner with RIL Codon Plus plasmid, modified pET21 vector

[3] = biological target: T3, β2a protein (Oryctolagus cuniculus, UniProt P54288); test: AID peptide binding assay (fluorescence polarization): AID peptide variants against β2a; parameters: species or system rabbit; settings: up to 350 nM β2a protein
T3 construct: Equilibrium isotherm titrations were performed with full-length β2a and linkerless core β2a; 8xHis tag followed by a TEV protease site (N, cleaved yes); made in house; host or cells: E. coli BL-21 Tuner with RIL Codon Plus plasmid, modified pET21 vector
Source text: (§1) Fluorescence polarization was used to determine the equilibrium dissociation constant (KD) for the interaction between a fluorescein-labeled AID peptide, purified and various VDCC β constructs. The synthetic peptide was purified by HPLC reverse chromatography using a C18 column (Vydac) with a shallow acetonitrile gradient 20-80% (both solvents were supplemented with 0.05% trifluoracetic acid). Its sequence is derived from the AID motif of: the CaV1.1 I-II linker and is as follows: fluorescein-[…]-COOH (SEQ ID NO: 14). A mutant peptide, fluorescein-[…]-COOH (SEQ ID NO: 15) was prepared, in addition. Increasing concentrations of protein were incubated with 0.5 nM labeled peptide for 10 min in the dark at room temperature. Polarization measurements were taken with an ISS K2 fluorescence spectrophotometer at excitation and emission wavelengths of 492 and 520 nm, respectively, at 20° C., maintained by a temperature-controlled water bath. Polarization measurements were made with integration times on the order of 20 seconds, achieving a standard deviation of 5 percent of signal. Binding isotherms for the various samples were measured three independent times. Binding data were analyzed in SigmaPlot (SPSS) by nonlinear regression used to fit a binding function as defined by the following equation: […]

[4] = biological target: T4, fluorescein-labeled AID peptide (AID motif of the CaV1.1 I-II linker) (Oryctolagus cuniculus, UniProt P07293, M367N); test: AID peptide binding assay (fluorescence polarization): VDCC β constructs titrated against labeled AID peptide; settings: identical protein amounts, after incubation with TEV protease, FIG. 6c
T4 construct: fluorescein label (chemical, on the amino-terminus); made in house; host or cells: synthetic peptide, HPLC-purified
Source text: as §1, with “Increasing concentrations of protein were incubated with 0.5 nM labeled peptide for 10 min in the dark at room temperature.” left out, “Polarization measurements were made with integration times on the order of 20 seconds, achieving a standard deviation of 5 percent of signal.” left out
where X is the concentration of free ligand, ΔP is the change in fluorescence polarization of the fluorophore (baseline polarization of the labeled peptide alone was subtracted), Bmax is the maximum change in polarization upon saturation and KD is the concentration of ligand required to reach half maximal binding. […]

[5] = tested on: β; settings: AID with β; cited from earlier work

T1 sequence (Q13936 whole entry, species assumed): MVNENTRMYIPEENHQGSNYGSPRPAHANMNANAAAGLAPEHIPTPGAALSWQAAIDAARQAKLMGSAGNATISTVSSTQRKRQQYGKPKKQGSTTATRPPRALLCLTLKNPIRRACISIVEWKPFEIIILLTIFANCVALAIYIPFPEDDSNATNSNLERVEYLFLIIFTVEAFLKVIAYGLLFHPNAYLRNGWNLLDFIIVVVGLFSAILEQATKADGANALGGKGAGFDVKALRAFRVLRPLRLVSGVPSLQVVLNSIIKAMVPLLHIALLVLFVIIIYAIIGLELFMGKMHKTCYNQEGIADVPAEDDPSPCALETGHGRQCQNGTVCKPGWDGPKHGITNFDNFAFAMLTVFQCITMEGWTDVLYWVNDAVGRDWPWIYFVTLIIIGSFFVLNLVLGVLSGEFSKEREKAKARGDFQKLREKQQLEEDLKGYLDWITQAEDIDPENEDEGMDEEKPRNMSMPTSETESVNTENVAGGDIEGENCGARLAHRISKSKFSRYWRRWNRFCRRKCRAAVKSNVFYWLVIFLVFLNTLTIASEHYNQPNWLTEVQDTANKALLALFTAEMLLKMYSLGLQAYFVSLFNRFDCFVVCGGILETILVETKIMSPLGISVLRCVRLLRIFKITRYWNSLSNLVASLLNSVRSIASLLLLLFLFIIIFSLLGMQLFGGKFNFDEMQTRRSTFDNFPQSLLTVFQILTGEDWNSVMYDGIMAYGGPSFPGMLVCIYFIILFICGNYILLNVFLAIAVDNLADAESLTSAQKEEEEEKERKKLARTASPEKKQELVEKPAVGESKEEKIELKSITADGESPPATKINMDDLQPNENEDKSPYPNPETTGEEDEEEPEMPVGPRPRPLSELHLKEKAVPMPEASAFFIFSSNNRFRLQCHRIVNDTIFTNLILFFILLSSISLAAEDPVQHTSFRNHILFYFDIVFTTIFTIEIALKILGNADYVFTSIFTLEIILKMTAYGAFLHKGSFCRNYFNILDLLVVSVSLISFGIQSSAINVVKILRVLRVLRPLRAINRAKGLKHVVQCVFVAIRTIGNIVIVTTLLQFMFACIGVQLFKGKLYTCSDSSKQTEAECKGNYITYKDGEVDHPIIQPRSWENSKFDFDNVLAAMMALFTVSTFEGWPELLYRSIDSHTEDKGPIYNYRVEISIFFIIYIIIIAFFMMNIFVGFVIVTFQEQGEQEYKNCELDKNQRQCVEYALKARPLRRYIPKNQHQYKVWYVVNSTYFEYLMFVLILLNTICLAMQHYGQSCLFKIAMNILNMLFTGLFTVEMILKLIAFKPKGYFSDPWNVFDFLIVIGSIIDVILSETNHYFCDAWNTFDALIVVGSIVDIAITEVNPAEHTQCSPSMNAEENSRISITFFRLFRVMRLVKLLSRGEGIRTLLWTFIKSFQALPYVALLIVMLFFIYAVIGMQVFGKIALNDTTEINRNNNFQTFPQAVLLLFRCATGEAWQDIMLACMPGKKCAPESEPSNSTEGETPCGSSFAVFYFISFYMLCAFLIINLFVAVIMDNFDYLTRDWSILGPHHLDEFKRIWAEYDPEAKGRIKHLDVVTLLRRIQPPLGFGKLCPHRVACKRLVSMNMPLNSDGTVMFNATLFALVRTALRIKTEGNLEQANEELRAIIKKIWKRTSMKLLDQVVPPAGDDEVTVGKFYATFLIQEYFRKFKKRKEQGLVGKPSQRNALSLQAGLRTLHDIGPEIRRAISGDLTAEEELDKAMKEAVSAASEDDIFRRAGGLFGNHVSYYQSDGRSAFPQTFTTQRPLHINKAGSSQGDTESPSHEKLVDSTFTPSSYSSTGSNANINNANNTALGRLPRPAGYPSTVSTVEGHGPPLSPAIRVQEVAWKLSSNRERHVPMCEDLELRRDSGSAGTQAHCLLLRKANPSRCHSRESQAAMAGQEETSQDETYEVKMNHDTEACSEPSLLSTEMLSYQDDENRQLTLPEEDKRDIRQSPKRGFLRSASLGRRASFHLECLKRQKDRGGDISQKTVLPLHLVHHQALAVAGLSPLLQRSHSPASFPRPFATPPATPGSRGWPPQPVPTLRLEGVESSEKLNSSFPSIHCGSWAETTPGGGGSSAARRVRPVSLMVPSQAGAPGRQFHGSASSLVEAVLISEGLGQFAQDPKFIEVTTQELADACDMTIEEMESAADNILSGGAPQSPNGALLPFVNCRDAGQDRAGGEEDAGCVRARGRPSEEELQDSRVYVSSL
T4 sequence (P07293 with tags, fused parts or gaps M367N): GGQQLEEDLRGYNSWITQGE
T3 sequence (P54288 2-606 isoform P54288-2 P122R): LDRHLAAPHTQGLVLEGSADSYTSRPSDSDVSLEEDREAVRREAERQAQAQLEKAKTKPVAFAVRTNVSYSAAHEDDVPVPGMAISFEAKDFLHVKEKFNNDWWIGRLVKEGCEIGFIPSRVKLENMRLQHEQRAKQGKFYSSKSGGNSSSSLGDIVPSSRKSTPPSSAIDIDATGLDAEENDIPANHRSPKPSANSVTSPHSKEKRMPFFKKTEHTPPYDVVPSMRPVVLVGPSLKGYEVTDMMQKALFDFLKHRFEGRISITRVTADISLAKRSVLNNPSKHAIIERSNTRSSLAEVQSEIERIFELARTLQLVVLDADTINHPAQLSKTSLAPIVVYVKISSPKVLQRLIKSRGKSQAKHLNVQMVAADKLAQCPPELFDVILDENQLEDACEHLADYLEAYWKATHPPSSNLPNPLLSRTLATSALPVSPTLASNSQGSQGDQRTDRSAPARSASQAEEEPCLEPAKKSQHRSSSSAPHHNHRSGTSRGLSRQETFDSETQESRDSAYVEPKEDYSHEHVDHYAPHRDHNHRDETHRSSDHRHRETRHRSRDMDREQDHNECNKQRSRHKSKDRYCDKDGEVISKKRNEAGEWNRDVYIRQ
T2 sequence (P54288 2-606 isoform P54288-2 P122R): as above

d1 + d2 β2 Pro.: domain I + domain II prepared by proteolysis of full length protein and subsequent purification
current amplitude increase and change of steady-state activation [1]: significant changes in the current amplitude and activation shift
Current amplitude, I at 20 mV [1]: -0.44 ± 0.04 µA
Current amplitude, I at 30 mV [1]: -0.34 ± 0.03 µA
Steady-state activation, V1/2 (membrane potential for half-maximal activation) [1]: 3.24 ± 0.93 mV
Steady-state activation, k (slope factor) [1]: 9.49 ± 0.92 mV

Core β2 Pro.: injected recombinant β2a core protein
current amplitude increase and change of steady-state activation [1]: corresponds well to full-length protein activity
Current amplitude, I at 20 mV [1]: −0.87 ± 0.09 A
Current amplitude, I at 30 mV [1]: -0.7 ± 0.07 µA
Steady-state activation, V1/2 (membrane potential for half-maximal activation) [1]: 6.84 ± 0.83 mV
Steady-state activation, k (slope factor) [1]: 8.43 ± 0.23 mV

Full β3 Pro.: recombinant full-length rat VDCC β3 subunit protein
Current amplitude, I at 20 mV [1]: -0.47 ± 0.04 µA
Current amplitude, I at 30 mV [1]: -0.44 ± 0.03 µA
Steady-state activation, V1/2 (membrane potential for half-maximal activation) [1]: 10.03 ± 3.36 mV
Steady-state activation, k (slope factor) [1]: 10.56 ± 0.42 mV

fluorescein-GGQQLEEDLRGSNSWITQGE-COOH (SEQ ID NO: 15) (fluorescein-GGQQLEEDLRGSNSWITQGE-OH; listed as Oryctolagus cuniculus) [mutant AID peptide, mutant AID peptide with single amino acid change Y to S]
binding capability relative to WT [2]: less than five percent binding capability of WT
binding of AID peptide to β2a [3]: No binding

β2a domain I: recombinant β2a domain I, residues 25 to 146
relative binding to labeled AID peptide [4]: negligible
Current amplitude, I at 20 mV [1]: -0.16 ± 0.01 µA
Current amplitude, I at 30 mV [1]: -0.18 ± 0.02 µA
Steady-state activation, V1/2 (membrane potential for half-maximal activation) [1]: 24.00 ± 3.01 mV
Steady-state activation, k (slope factor) [1]: 12.18 ± 0.49 mV

Full β2 Pro.: injected recombinant full-length β2a protein, later found to contain mutation P122R
Current amplitude, I at 20 mV [1]: -0.71 ± 0.09 µA
Current amplitude, I at 30 mV [1]: -0.49 ± 0.06 µA
Steady-state activation, V1/2 (membrane potential for half-maximal activation) [1]: 3.68 ± 0.33 mV
Steady-state activation, k (slope factor) [1]: 8.48 ± 0.53 mV

domain II: β2a domain II released from NusA-domain II fusion by incubation with TEV protease
relative binding to labeled AID peptide [4]: significant binding affinity for the AID

Core β3 Pro.: β3 core protein
Current amplitude, I at 20 mV [1]: -0.45 ± 0.04 µA
Current amplitude, I at 30 mV [1]: -0.41 ± 0.03 µA
Steady-state activation, V1/2 (membrane potential for half-maximal activation) [1]: 10.65 ± 4.46 mV
Steady-state activation, k (slope factor) [1]: 10.06 ± 1.15 mV

AID: α1 interaction domain sequence of the α1 I-II linker that binds β
koff [5]: ~0.005 s⁻¹
